Measurements reported in PMC10065947 (Nature chemical biology, 2022).

Biological target: TAMRA-APP12 (peptide S1) (TAMRA label (position not given); C-terminal amide)
Assay: fluorescence polarisation

B1: naïve fusion of WT Fyn-SH3 and WT COMT (enzyme)
chain: not shown
  Kd: 330 nM
